# In paper PMC12638815, “Targeting ACE2 with a camelid antibody inhibits SARS-CoV-2 binding and has protective effects in vivo” (Nature Communications, 2025):
# B1: endogenous ACE2 on Vero E6 cells (receptor, simian (endogenous in Vero E6))
# chain: QSTIEEQAKTFLDKFNHEAEDLFYQSSLASWNYNTNITEENVQNMNNAGEKWSAFLKEQSTLAQMYPLQAIQNLTVKLQLQALQQNGSSVLSEDKSKRLNTILNTMSTIYSTGKVCNPNNPQECLLLDPGLNEIMEKSLDYNERLWAWEGWRSEVGKQLRPLYEEYVVLKNEMARANHYKDYGDYWRGDYEVNGVDGYDYNRDQLIEDVERTFEEIKPLYEHLHAYVRAKLMNAYPSYISPTGCLPAHLLGDMWGRFWTNLYSLTVPFGQKPNIDVTDAMVNQAWNAQRIFKEAEKFFVSVGLPNMTQGFWENSMLTDPGNVQKVVCHPTAWDLGKGDFRIIMCTKVTMDDFLTAHHEMGHIQYDMAYAAQPFLLRNGANEGFHEAVGEIMSLSAATPKHLKSIGLLSPDFQEDNETEINFLLKQALTIVGTLPFTYMLEKWRWMVFKGEIPKDQWMKKWWEMKREIVGVVEPVPHDETYCDPASLFHVSNDYSFIRYYTRTLYQFQFQEALCQAAKHEGPLHKCDISNSTEAGQKLLNMLKLGKSEPWTLALENVVGAKNMNVRPLLNYFEPLFTWLKDQNKNSFVGWSTDWSPYADQSIKVRISLKSALGANAYKWNDNEMYLFRSSVAYAMRQYFLENKHQTILFGEEDVRVADLKPRISFNFYVTAPKNVSDIIPRTEVEEAIRFSRSRINDAFQLNDNSLEFLGIQSTLIPPYQSPVTTWLIVFGVVMAVIVAGIVVLIFTGIRDRKKKNQARSEENPYASIDISKGENNPGFQNTDDVQTSF
# notes: ACE2 endogenously expressed by the simian kidney cell line Vero E6; also called non-human ACE2 (Vero E6); source: endogenous, Vero E6 cells
# Tests used:
# [1] = molecular target: T1, VHH B07-Fc (VHH B07 in fusion with the human IgG1 Fc segment) (alpaca); experiment: flow cytometry on cells; cell lines with exogenous or endogenous ACE2 incubated with 0.1 µg/mL VHH-Fc, 60 min at 4 °C; fluorescent anti-human IgG antibody; settings: one partner purified
# T1 construct: also called dimeric VHH-Fc; source: Expi293 cells, transfected, purified from supernatant (HiTrap protein A, SEC Superdex 75); not shown: Fc (human IgG1; hinge, CH2 and CH3), C-terminal, kept
# [2] = molecular target: B1; experiment: flow cytometry on cells; cell lines with exogenous or endogenous ACE2 incubated with 10 µg/mL VHH, 60 min at 4 °C; anti-myc and fluorescent anti-mouse antibody; parental cells or a control VHH as negative controls; settings: one partner purified
# [3] = molecular target: T2, hACE2 peptidase domain fused to a human Fc from IgG (Homo sapiens, UniProt Q9BYF1); experiment: BLI; hACE2-Fc immobilised on AHC biosensors (1 µg/mL), monomeric VHHs as analytes; PBS working buffer with 300 mM NaCl, pH 7.2, 30 °C; global 1:1 fit, apparent KD; settings: both partners purified
# T2 construct: human angiotensin-converting enzyme 2, peptidase domain; also called hACE2-Fc; sACE2-Fc
# [4] = molecular target: T3, soluble human ACE2 peptidase domain (residues 19-615), untagged (Homo sapiens, UniProt Q9BYF1); experiment: BLI; VHH-His immobilised on Ni-NTA biosensors, soluble hACE2 as analyte; PBS working buffer with 300 mM NaCl, pH 7.2, 30 °C; 1:1 fit, apparent KD; settings: both partners purified
# T3 construct: human ACE2 peptidase domain, residues 19-615, secreted with an IgK signal peptide; Residues of the thrombin site may remain at the C-terminus after cleavage; also called sACE2; soluble hACE2; source: Expi293F cells with kifunensine, purified (Streptactin, SEC, thrombin cleavage, SEC); not shown: His8, C-terminal, cleaved; Strep, C-terminal, cleaved
# T3 sequence (Q9BYF1 19-615): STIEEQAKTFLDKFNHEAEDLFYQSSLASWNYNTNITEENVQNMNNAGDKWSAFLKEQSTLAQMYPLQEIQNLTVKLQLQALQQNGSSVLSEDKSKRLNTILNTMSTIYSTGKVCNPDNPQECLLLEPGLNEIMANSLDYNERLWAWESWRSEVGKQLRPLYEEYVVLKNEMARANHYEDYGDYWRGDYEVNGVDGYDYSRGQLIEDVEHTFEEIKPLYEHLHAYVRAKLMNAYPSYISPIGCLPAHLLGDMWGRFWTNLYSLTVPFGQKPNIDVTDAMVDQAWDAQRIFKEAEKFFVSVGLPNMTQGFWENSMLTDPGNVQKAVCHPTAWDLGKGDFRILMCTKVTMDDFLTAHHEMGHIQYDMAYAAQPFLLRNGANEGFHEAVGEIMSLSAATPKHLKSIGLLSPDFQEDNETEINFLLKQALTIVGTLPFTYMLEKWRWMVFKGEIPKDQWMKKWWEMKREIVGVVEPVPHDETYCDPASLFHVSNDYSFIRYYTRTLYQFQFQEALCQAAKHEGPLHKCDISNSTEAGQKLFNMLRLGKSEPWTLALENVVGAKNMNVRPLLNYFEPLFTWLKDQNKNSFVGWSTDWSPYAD
Binder,binding result [1],binding result [2],Kd [3],Kd [4]
B1,binds,–,–,–
"VHH B07 (VHH, alpaca VHH from phage display (gene IGHV3S53); Expressed from pHEN6 with c-myc and His tags at the C-terminal end; also called anti-hACE2 VHH B07; source: E. coli TG1 periplasm, purified (His pure Cobalt sepharose beads); not shown: c-myc, C-terminal, kept; His, C-terminal, kept) VHH: EVQLQASGGGLVQAGGSLRLSCAASRSTFSTNTIGWYRQAPGKQRELVASISTSGNTYYPDSVKGRFAISRDNAENTVYLQMNSLKPEDTAVYYCNTPSRRISNFWGQGTQVTVSS",–,binds,242 nM,1140 nM
"VHH B09 (VHH, No structure of B09 was solved; also called anti-hACE2 VHH B09; source: E. coli TG1 periplasm, purified (His pure Cobalt sepharose beads); not shown: c-myc, C-terminal, kept; His, C-terminal, kept) VHH: QVQLVESGGGLVQAGGSLRLSCATSRSTFSSNTIGWYRQAPGKQRELVASISTSGNTYYADSVKGRFAISRDNAENTVYLQMNSLKPEDTAVYYCNTPSRRISNFWGQGTQVTVSS",–,binds,214 nM,1960 nM
"VHH B10 (VHH, alpaca VHH from phage display (gene IGHV3-3); also called anti-hACE2 VHH B10; source: E. coli TG1 periplasm, purified (His pure Cobalt sepharose beads); not shown: c-myc, C-terminal, kept; His, C-terminal, kept) VHH: QVQLVESGGGLVQAGDSLRLSCAASGRTFSSYAMGWFRQALGKEREFVAVISGSGTSTYYTDSVKGRFTISRDNAKNTVYLQMNSLKPEDTAVYYCARAKGFSTIYNQDEGRYDYWGQGTQVTVSS",–,binds,21 nM,22 nM
